What was measured:
UBE2W-WT (human) = UBE2W-WT (human) (UniProt Q96B02); test: SEC
SEC = molecular target: the molecule itself; test: SEC

UBE2W-WT, sequence (Q96B02 whole entry): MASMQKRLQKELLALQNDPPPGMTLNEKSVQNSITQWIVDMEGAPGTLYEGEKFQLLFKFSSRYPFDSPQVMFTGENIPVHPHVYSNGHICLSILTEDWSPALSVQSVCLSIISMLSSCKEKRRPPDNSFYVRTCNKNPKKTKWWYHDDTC

stoichiometry N (UBE2W-WT (human))	Molecule	stoichiometry N (SEC)
2	UBE2W-WT (from UniProt Q96B02 1-151) (enzyme)	–
–	UBE2W-131Δ (truncation following Y131) (domain or fragment, human, UniProt Q96B02 1-131, looked up) MASMQKRLQKELLALQNDPPPGMTLNEKSVQNSITQWIVDMEGAPGTLYEGEKFQLLFKFSSRYPFDSPQVMFTGENIPVHPHVYSNGHICLSILTEDWSPALSVQSVCLSIISMLSSCKEKRRPPDNSFY	2
